Patent publication US6979673B1, “Method and compositions for modulating somatolactogenic functions” (Trustees of the University of Pennsylvania, priority 1999, dated 2005)

Test system: Nb2 cells
Test: PRL-driven proliferation of Nb2 cells (3H-thymidine)
Format: cell-based, rat
Method: The effect of exogenous CypB on PRL-driven proliferation was examined with the rat Nb2 T-cell and the human T47D breast cancer line. […] This dose-dependent biphasic effect was most prominent at physiologic concentrations ([…]) of CypB and PRL (50 pM) found in human serum. […] To determine the effect of CypB on cellular growth driven by the larger family of cytokines, to which PRL belongs, proliferation driven by interleukin-2 (IL-2), IL-3 and GH was examined.
Nb2-cells (5×10^4; PRL-dependent, rat T-lymphoma) were plated in each well of 96 well plates in a defined DMEM-serum free medium (0.1 mM 2-mercaptoethanol, 1% penicillin/streptomycin, and 1% ITS+ (Calbiochem)). Cells were rested for 24 hours at 37° C. in this defined medium in the absence of PRL before the addition of 5–500 pM PRL (either as human pituitary isolated PRL, National Hormone and Pituitary Program, NIDDK; recombinant human PRL from E. coli, Genzyme; or recombinant human PRL from Drosophila S2 cells) alone or premixed with 1–2000 fold excess of purified CypB. Parallel studies were performed using human pituitary-derived GH (National Hormone and Pituitary Program, NIDDK). Cultures were incubated for 48 hours at 37° C. and proliferation was evaluated by the addition of 0.5 μCi of ^3H-thymidine for four hours followed by harvesting and scintillography. […]

| Molecule | bioactivity in Nb2 bioassays (protein expressed in Drosophila S2 cells) | PRL concentration at which Nb2 growth curves plateau (PRL alone, sigmoid shaped growth curves) |
| --- | --- | --- |
| Myc-tagged PRL: recombinant myc-tagged human PRL expressed and secreted by Drosophila S2 cells (protein, left off: small tags and cut ends, recombinant myc-tagged human PRL expressed and secreted by Drosophila S2 cells) LPICPGGAARCQVTLRDLFDRAVVLSHYIHNLSSEMFSEFDKRYTHGRGFITKAINSCHTSSLATPEDKEQAQQMNQKDFLSLIVSILRSWNEPLYHLVTEVRGMQEAPEAILSKAVEIEEQTKRLLEGMELIVSQVHPETKENEIYPVWSGLPSLQMADEESRLSAYYNLLHCLRRDSHKIDNYLKLLKCRIIHNNNC | functionally bioactive | – |
| PRL: somatolactogenic hormone prolactin; human pituitary isolated or recombinant human PRL (protein, left off: small tags and cut ends) LPICPGGAARCQVTLRDLFDRAVVLSHYIHNLSSEMFSEFDKRYTHGRGFITKAINSCHTSSLATPEDKEQAQQMNQKDFLSLIVSILRSWNEPLYHLVTEVRGMQEAPEAILSKAVEIEEQTKRLLEGMELIVSQVHPETKENEIYPVWSGLPSLQMADEESRLSAYYNLLHCLRRDSHKIDNYLKLLKCRIIHNNNC | – | approximately 2 ng PRL/ml |
